Results on 5 molecules are retold here after patent US20230272029A1, “CO-AGONISTS AT GLP-1 AND GIP RECEPTORS SUITABLE FOR ORAL DELIVERY” (Novo Nordisk A/S, priority 2020, published 2023).

Starred links: 1 amine or outer side, 2 acyl side, 3 side chain; linkers in the order of their positions; H or OH if unused. Non-standard residues stand in square brackets, D forms with d. Groups on a side chain read outwards from the residue. No end group written: not given here. *: point of attachment. C18 diacid = O=C(O)CCCCCCCCCCCCCCCCC(=O)*; γGlu = O=C(O)[C@H](CCC(=O)[*:2])N[*:1]; εLys = N[C@@H](CCCCN[*:1])C(=O)[*:2]; AEEA = NCCOCCOCC(=O)O; Aib = CC(C)(N)C(=O)O

One test concerns the target T1, human GIP receptor (human, UniProt P48546 22-466).
T1 sequence (looked up): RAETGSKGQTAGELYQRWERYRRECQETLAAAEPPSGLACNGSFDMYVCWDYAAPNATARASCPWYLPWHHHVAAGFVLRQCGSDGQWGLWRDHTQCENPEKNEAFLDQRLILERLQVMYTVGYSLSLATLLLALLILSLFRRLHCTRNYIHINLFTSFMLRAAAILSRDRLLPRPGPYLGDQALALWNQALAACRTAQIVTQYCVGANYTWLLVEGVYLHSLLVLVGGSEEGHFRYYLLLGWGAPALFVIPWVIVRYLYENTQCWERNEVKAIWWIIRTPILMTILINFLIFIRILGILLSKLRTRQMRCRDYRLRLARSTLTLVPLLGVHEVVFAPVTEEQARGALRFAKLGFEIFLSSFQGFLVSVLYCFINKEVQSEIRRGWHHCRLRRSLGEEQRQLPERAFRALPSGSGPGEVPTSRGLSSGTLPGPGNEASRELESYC
Briefly: cell-based or functional assay.

A further test deals with human GLP-1 receptor (human, UniProt P43220 24-463). Nature of the test: cell-based or functional assay.

B1: Compound No. 37 (peptide)
peptide: Y[Aib]EGTFTSDYSIYLEEQAARK([εLys-εLys-γGlu-C18 diacid])FINWLLAGGPSSGAPPPS-OH
modifications: N-terminus assumed
SMILES: CC[C@H](C)[C@H](NC(=O)[C@H](Cc1ccccc1)NC(=O)[C@H](CCCCNC(=O)[C@@H](N)CCCCNC(=O)[C@@H](N)CCCCNC(=O)CC[C@H](NC(=O)CCCCCCCCCCCCCCCCC(=O)O)C(=O)O)NC(=O)[C@H](CCCNC(=N)N)NC(=O)[C@H](C)NC(=O)[C@H](C)NC(=O)[C@H](CCC(N)=O)NC(=O)[C@H](CCC(=O)O)NC(=O)[C@H](CCC(=O)O)NC(=O)[C@H](CC(C)C)NC(=O)[C@H](Cc1ccc(O)cc1)NC(=O)[C@@H](NC(=O)[C@H](CO)NC(=O)[C@H](Cc1ccc(O)cc1)NC(=O)[C@H](CC(=O)O)NC(=O)[C@H](CO)NC(=O)[C@@H](NC(=O)[C@H](Cc1ccccc1)NC(=O)[C@@H](NC(=O)CNC(=O)[C@H](CCC(=O)O)NC(=O)C(C)(C)NC(=O)[C@@H](N)Cc1ccc(O)cc1)[C@@H](C)O)[C@@H](C)O)[C@@H](C)CC)C(=O)N[C@@H](CC(N)=O)C(=O)N[C@@H](Cc1c[nH]c2ccccc12)C(=O)N[C@@H](CC(C)C)C(=O)N[C@@H](CC(C)C)C(=O)N[C@@H](C)C(=O)NCC(=O)NCC(=O)N1CCC[C@H]1C(=O)N[C@@H](CO)C(=O)N[C@@H](CO)C(=O)NCC(=O)N[C@@H](C)C(=O)N1CCC[C@H]1C(=O)N1CCC[C@H]1C(=O)N1CCC[C@H]1C(=O)N[C@@H](CO)C(=O)O
In the case of B1, in the test with human GIP receptor, the “hGIPR, CRE Luc 0% HSA EC50 (pM)” value was 11.2 pM and the “hGIPR, CRE Luc 1% HSA EC50 (pM)” value was 298 pM. In the test with human GLP-1 receptor, the “hGLP-1R, CRE Luc 0% HSA EC50 (pM)” value worked out at 2.7 pM and the “hGLP-1R, CRE Luc 1% HSA EC50 (pM)” value worked out at 94.6 pM.

B2: Compound No. 7 (peptide)
peptide: Y[Aib]EGTFTSDYSIYLEK([AEEA-AEEA-γGlu-C18 diacid])QAAREFVNWLLAGGPSSGAPPPS-NH2
modifications: N-terminus assumed
SMILES: CC[C@H](C)[C@H](NC(=O)[C@H](CO)NC(=O)[C@H](Cc1ccc(O)cc1)NC(=O)[C@H](CC(=O)O)NC(=O)[C@H](CO)NC(=O)[C@@H](NC(=O)[C@H](Cc1ccccc1)NC(=O)[C@@H](NC(=O)CNC(=O)[C@H](CCC(=O)O)NC(=O)C(C)(C)NC(=O)[C@@H](N)Cc1ccc(O)cc1)[C@@H](C)O)[C@@H](C)O)C(=O)N[C@@H](Cc1ccc(O)cc1)C(=O)N[C@@H](CC(C)C)C(=O)N[C@@H](CCC(=O)O)C(=O)N[C@@H](CCCCNC(=O)COCCOCCNC(=O)COCCOCCNC(=O)CC[C@H](NC(=O)CCCCCCCCCCCCCCCCC(=O)O)C(=O)O)C(=O)N[C@@H](CCC(N)=O)C(=O)N[C@@H](C)C(=O)N[C@@H](C)C(=O)N[C@@H](CCCNC(=N)N)C(=O)N[C@@H](CCC(=O)O)C(=O)N[C@@H](Cc1ccccc1)C(=O)N[C@H](C(=O)N[C@@H](CC(N)=O)C(=O)N[C@@H](Cc1c[nH]c2ccccc12)C(=O)N[C@@H](CC(C)C)C(=O)N[C@@H](CC(C)C)C(=O)N[C@@H](C)C(=O)NCC(=O)NCC(=O)N1CCC[C@H]1C(=O)N[C@@H](CO)C(=O)N[C@@H](CO)C(=O)NCC(=O)N[C@@H](C)C(=O)N1CCC[C@H]1C(=O)N1CCC[C@H]1C(=O)N1CCC[C@H]1C(=O)N[C@@H](CO)C(N)=O)C(C)C
Turning to B2, in the test with human GIP receptor, the “hGIPR, CRE Luc 0% HSA EC50 (pM)” value stood at 28.7 pM and the “hGIPR, CRE Luc 1% HSA EC50 (pM)” value is 687 pM. Further, in the test with human GLP-1 receptor, the “hGLP-1R, CRE Luc 0% HSA EC50 (pM)” value amounted to 4.2 pM and the “hGLP-1R, CRE Luc 1% HSA EC50 (pM)” value was determined as 513 pM.

B3: Compound No. 8 (peptide)
peptide: Y[Aib]EGTFTSDYSIYLEK([εLys-εLys-γGlu-C18 diacid])QAAREFINWLLAGGPSSGAPPPS-NH2
modifications: N-terminus assumed
SMILES: CC[C@H](C)[C@H](NC(=O)[C@H](Cc1ccccc1)NC(=O)[C@H](CCC(=O)O)NC(=O)[C@H](CCCNC(=N)N)NC(=O)[C@H](C)NC(=O)[C@H](C)NC(=O)[C@H](CCC(N)=O)NC(=O)[C@H](CCCCNC(=O)[C@@H](N)CCCCNC(=O)[C@@H](N)CCCCNC(=O)CC[C@H](NC(=O)CCCCCCCCCCCCCCCCC(=O)O)C(=O)O)NC(=O)[C@H](CCC(=O)O)NC(=O)[C@H](CC(C)C)NC(=O)[C@H](Cc1ccc(O)cc1)NC(=O)[C@@H](NC(=O)[C@H](CO)NC(=O)[C@H](Cc1ccc(O)cc1)NC(=O)[C@H](CC(=O)O)NC(=O)[C@H](CO)NC(=O)[C@@H](NC(=O)[C@H](Cc1ccccc1)NC(=O)[C@@H](NC(=O)CNC(=O)[C@H](CCC(=O)O)NC(=O)C(C)(C)NC(=O)[C@@H](N)Cc1ccc(O)cc1)[C@@H](C)O)[C@@H](C)O)[C@@H](C)CC)C(=O)N[C@@H](CC(N)=O)C(=O)N[C@@H](Cc1c[nH]c2ccccc12)C(=O)N[C@@H](CC(C)C)C(=O)N[C@@H](CC(C)C)C(=O)N[C@@H](C)C(=O)NCC(=O)NCC(=O)N1CCC[C@H]1C(=O)N[C@@H](CO)C(=O)N[C@@H](CO)C(=O)NCC(=O)N[C@@H](C)C(=O)N1CCC[C@H]1C(=O)N1CCC[C@H]1C(=O)N1CCC[C@H]1C(=O)N[C@@H](CO)C(N)=O
With B3, in the test with human GIP receptor, the “hGIPR, CRE Luc 0% HSA EC50 (pM)” value was determined as 6.7 pM and the “hGIPR, CRE Luc 1% HSA EC50 (pM)” value amounted to 191 pM. Also, in the test with human GLP-1 receptor, the “hGLP-1R, CRE Luc 0% HSA EC50 (pM)” value amounted to 2.3 pM and the “hGLP-1R, CRE Luc 1% HSA EC50 (pM)” value worked out at 82.1 pM.

B4: Compound No. 10 (peptide)
peptide: Y[Aib]EGTFTSDYSIYLEK([AEEA-AEEA-γGlu-C18 diacid])QAAREFIEWLLAGGPSSGAPPPS-OH
modifications: N-terminus assumed
SMILES: CC[C@H](C)[C@H](NC(=O)[C@H](Cc1ccccc1)NC(=O)[C@H](CCC(=O)O)NC(=O)[C@H](CCCNC(=N)N)NC(=O)[C@H](C)NC(=O)[C@H](C)NC(=O)[C@H](CCC(N)=O)NC(=O)[C@H](CCCCNC(=O)COCCOCCNC(=O)COCCOCCNC(=O)CC[C@H](NC(=O)CCCCCCCCCCCCCCCCC(=O)O)C(=O)O)NC(=O)[C@H](CCC(=O)O)NC(=O)[C@H](CC(C)C)NC(=O)[C@H](Cc1ccc(O)cc1)NC(=O)[C@@H](NC(=O)[C@H](CO)NC(=O)[C@H](Cc1ccc(O)cc1)NC(=O)[C@H](CC(=O)O)NC(=O)[C@H](CO)NC(=O)[C@@H](NC(=O)[C@H](Cc1ccccc1)NC(=O)[C@@H](NC(=O)CNC(=O)[C@H](CCC(=O)O)NC(=O)C(C)(C)NC(=O)[C@@H](N)Cc1ccc(O)cc1)[C@@H](C)O)[C@@H](C)O)[C@@H](C)CC)C(=O)N[C@@H](CCC(=O)O)C(=O)N[C@@H](Cc1c[nH]c2ccccc12)C(=O)N[C@@H](CC(C)C)C(=O)N[C@@H](CC(C)C)C(=O)N[C@@H](C)C(=O)NCC(=O)NCC(=O)N1CCC[C@H]1C(=O)N[C@@H](CO)C(=O)N[C@@H](CO)C(=O)NCC(=O)N[C@@H](C)C(=O)N1CCC[C@H]1C(=O)N1CCC[C@H]1C(=O)N1CCC[C@H]1C(=O)N[C@@H](CO)C(=O)O
B4: the “hGIPR, CRE Luc 1% HSA EC50 (pM)” value in the test with human GIP receptor turned out to be 1750 pM. Further, in the test with human GLP-1 receptor, the “hGLP-1R, CRE Luc 0% HSA EC50 (pM)” value was 3.9 pM and the “hGLP-1R, CRE Luc 1% HSA EC50 (pM)” value amounted to 940 pM.

B5: Compound No. 11 (peptide)
peptide: Y[Aib]EGTFTSDYSIYLEK([εLys-εLys-γGlu-C18 diacid])QAAREFINWLLAGGPSSGAPPPS-OH
modifications: N-terminus assumed
SMILES: CC[C@H](C)[C@H](NC(=O)[C@H](Cc1ccccc1)NC(=O)[C@H](CCC(=O)O)NC(=O)[C@H](CCCNC(=N)N)NC(=O)[C@H](C)NC(=O)[C@H](C)NC(=O)[C@H](CCC(N)=O)NC(=O)[C@H](CCCCNC(=O)[C@@H](N)CCCCNC(=O)[C@@H](N)CCCCNC(=O)CC[C@H](NC(=O)CCCCCCCCCCCCCCCCC(=O)O)C(=O)O)NC(=O)[C@H](CCC(=O)O)NC(=O)[C@H](CC(C)C)NC(=O)[C@H](Cc1ccc(O)cc1)NC(=O)[C@@H](NC(=O)[C@H](CO)NC(=O)[C@H](Cc1ccc(O)cc1)NC(=O)[C@H](CC(=O)O)NC(=O)[C@H](CO)NC(=O)[C@@H](NC(=O)[C@H](Cc1ccccc1)NC(=O)[C@@H](NC(=O)CNC(=O)[C@H](CCC(=O)O)NC(=O)C(C)(C)NC(=O)[C@@H](N)Cc1ccc(O)cc1)[C@@H](C)O)[C@@H](C)O)[C@@H](C)CC)C(=O)N[C@@H](CC(N)=O)C(=O)N[C@@H](Cc1c[nH]c2ccccc12)C(=O)N[C@@H](CC(C)C)C(=O)N[C@@H](CC(C)C)C(=O)N[C@@H](C)C(=O)NCC(=O)NCC(=O)N1CCC[C@H]1C(=O)N[C@@H](CO)C(=O)N[C@@H](CO)C(=O)NCC(=O)N[C@@H](C)C(=O)N1CCC[C@H]1C(=O)N1CCC[C@H]1C(=O)N1CCC[C@H]1C(=O)N[C@@H](CO)C(=O)O
As for B5, in the test with human GIP receptor, the “hGIPR, CRE Luc 0% HSA EC50 (pM)” value turned out to be 9.9 pM and the “hGIPR, CRE Luc 1% HSA EC50 (pM)” value turned out to be 450 pM. Also, in the test with human GLP-1 receptor, the “hGLP-1R, CRE Luc 0% HSA EC50 (pM)” value amounted to 3.3 pM and the “hGLP-1R, CRE Luc 1% HSA EC50 (pM)” value stood at 132 pM.
